# From patent US20190060239A1, “Technology for the Preparation of Microparticles” (Ansun Biopharma, Inc., priority 2007, published 2019)
# B1: DAS181: fusion protein: heparin (GAG) binding domain of human amphiregulin fused to a catalytic domain of Actinomyces Viscosus sialidase (SEQ ID NO:17) (protein)
# chain: MGDHPQATPAPAPDASTELPASMSQAQHLAANTATDNYRIPAITTAPNGDLLISYDERPKDNGNGGSDAPNPNHIVQRRSTDGGKTWSAPTYIHQGTETGKKVGYSDPSYVVDHQTGTIFNFHVKSYDQGWGGSRGGTDPENRGIIQAEVSTSTDNGWTWTHRTITADITKDKPWTARFAASGQGIQIQHGPHAGRLVQQYTIRTAGGAVQAVSVYSDDHGKTWQAGTPIGTGMDENKVVELSDGSLMLNSRASDGSGFRKVAHSTDGGQTWSEPVSDKNLPDSVDNAQIIRAFPNAAPDDPRAKVLLLSHSPNPRPWSRDRGTISMSCDDGASWTTSKVFHEPFVGYTTIAVQSDGSIGLLSEDAHNGADYGGIWYRNFTMNWLGEQCGQKPAKRKKKGGKNGKNRRNRKKKNP
# modifications: DAS181
# Test: Microsphere quality score by light microscopy (scoring system of Table 13)
# Format: physicochemical
# Protocol: For each of the compounds listed in A-D above, and for DAS181, cocktail solutions containing 2 mg/ml of compound dissolved in an aqueous solvent and various counterions, antisolvents and pH, as listed below, were prepared in a 96-well microtiter plate (0.1 ml cocktail/well) at room temperature. Control solutions contained either solvent or antisolvent alone, with or without the counterion. Cocktails were cooled by placing in a freezer. The chilled plates were transferred onto pre-chilled (−45° C.) shelves of a Millrock Lab Series Lyophilizer, and the vacuum was applied. The frozen cocktail solutions were allowed to lyophilize for 16 hours.
# The lyophilized powders from the bottoms of the wells were transferred onto glass slides and analyzed by light microscopy for appearance. The quality of the product microspheres was scored based on the uniformity of the microspheres, the absence of undesirable non-microsphere particles (glass-like crystalline forms), and the absence of aggregates.
# Arginine was used as counterion and isopropanol was used as antisolvent. Concentrations of each of the cocktail components—the compound, the counterion and the antisolvent—were varied as shown below in Table 15, and the effect on microsphere quality assessed.
# Experiments were performed to evaluate the effect of antisolvent and counterion concentration variation on the formation of microspheres. The peptides leuprolide and somatostatin, and the antibiotics vancomycin and tobramycin, were tested under a variety of conditions for forming microspheres. Samples were analyzed in 96-well plates as described in the previous Examples.
# The experiments were performed using PGI2 and an analog of PGI2, Ciprostene, at a concentration of 2 mg/ml. Cocktail solutions were mixed at room temperature, then cooled by placing in a freezer. The chilled plates were transferred onto pre-chilled (−45° C.) shelves of a Millrock Lab Series Lyophilizer, and the vacuum was applied. The frozen cocktail solutions were allowed to lyophilize for 16 hours.
# Because the resulting prostaglandin microspheres are hygroscopic, upon microsphere initiation, the humidity was maintained at low levels during the experiments, using a nitrogen gas tank attached to the backfill system on the lyophilizer. Each of the reaction tubes was flushed with N2. In addition, the backfill valve on the lyophilizer was left open to continually flush a low humidity atmosphere over the samples. The microscope used to visualize the resulting microspheres was contained within a plastic bag that was continually purged with dry N2. Sample tubes were placed under the bag to equilibrate for approximately 30 seconds, before opening and spreading onto the glass slide.
# The compound/counterion/antisolvent conditions were as follows:
# Experiments were performed with 200 μl of each of the above cocktail solutions in a 2 ml lyophilization bottle (first flash freeze condition), and 25 μl of each of the above cocktail solutions in a PCR tube (second flash freeze condition). The samples in the lyophilization bottles took approximately 15 seconds to freeze. The samples in the PCR tubes took approximately 3 seconds or less to freeze.
# The cocktails in the 96-well plates were cooled by placing in a freezer. The chilled plates were transferred onto pre-chilled (−45° C.) shelves of a Millrock Lab Series Lyophilizer, and a vacuum was applied. The frozen cocktail solutions were allowed to lyophilize for 16 hours.
# The lyophilized powders from the bottoms of the wells were transferred onto glass slides and analyzed by light microscopy for appearance.
molecule,measurement,setting,value
B1,Microsphere Quality,"2 mM Na-Glutamate, 15% n-propanol, pH 4.0",6/7
same,Microsphere Quality,"2 mM Na-citrate, 15% isopropanol, pH 4.0",5/6
same,Microsphere Quality,"2 mM Na-citrate, 15% n-propanol, pH 5.0",8/9
